In patent publication US20090143319:

What was measured:
NF-kB p65 (RelA) = NF-kB p65 (RelA) (UniProt Q04206); assay: competition; settings: unit not given
NF-kB = assay: cell_activity; settings: NF-kB SEAP reporter, 0.1 uM

NF-kB p65 (RelA), sequence (Q04206 whole entry): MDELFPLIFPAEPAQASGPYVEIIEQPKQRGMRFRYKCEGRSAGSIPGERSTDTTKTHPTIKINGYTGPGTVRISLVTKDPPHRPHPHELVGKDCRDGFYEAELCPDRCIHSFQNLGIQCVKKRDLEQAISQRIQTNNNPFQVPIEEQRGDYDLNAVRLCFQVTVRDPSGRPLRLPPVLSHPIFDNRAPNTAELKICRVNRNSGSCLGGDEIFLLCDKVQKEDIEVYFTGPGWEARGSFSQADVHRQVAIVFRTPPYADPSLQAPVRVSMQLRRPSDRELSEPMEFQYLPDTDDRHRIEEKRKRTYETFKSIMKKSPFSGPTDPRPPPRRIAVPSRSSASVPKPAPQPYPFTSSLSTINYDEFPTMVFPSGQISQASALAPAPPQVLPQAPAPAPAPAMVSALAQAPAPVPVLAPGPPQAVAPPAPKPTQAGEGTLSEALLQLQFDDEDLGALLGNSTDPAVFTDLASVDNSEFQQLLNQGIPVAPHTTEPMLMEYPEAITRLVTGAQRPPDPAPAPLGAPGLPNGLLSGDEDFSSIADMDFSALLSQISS

ACCAGGGGATTTCCCCGTCCCAC (double strand) [SEQ-G]
IC50 (NF-kB p65 (RelA)): 1.71

AGCTGGGGATTTCCCCTTTG (double strand) [SEQ-F]
IC50 (NF-kB p65 (RelA)): 3.4

AGTATCGGGGATTTCCCCTTAAC (double strand) [SEQ-E]
IC50 (NF-kB p65 (RelA)): 1.91

AGTTGAGGGGATTTCCCCAGGC (double strand) [SEQ-A]
IC50 (NF-kB p65 (RelA); ELISA competition with immobilized NF-kB site, room temperature): 1.51

AGTTGAGGGGATTTCCCCGC (double strand) [SEQ-H]
IC50 (NF-kB p65 (RelA)): 1.08

CCTTGAAGGGATTTCCCTCC (double strand) [SEQ-1]
IC50 (NF-kB p65 (RelA); PS (*): C*C*TTGAAGG*G*A*TTTCCCT*C*C / G*G*AGGGAAA*T*C*CCTTCAA*G*G): 0.84

CCTTGAAGGGATTTCCCTCC (double strand) [SEQ-x (full PS)]
IC50 (NF-kB p65 (RelA); PS at all positions, both strands, 2.60 in Table 3): 3.97

CCTTGAGGGGATTTCCCCCC (double strand) [SEQ-9]
activity (NF-kB; PS (*): C*C*TTG*A*GGGGATTT*C*CCCCC / antisense 5'-G*G*GGGGAAA*T*C*CCCTCAAGG): 70 % inhibition

CCTTGAGGGGATTTCCCCCC (double strand) [SEQ-I-PS]
IC50 (NF-kB p65 (RelA); PS at 2 bonds at each end of both strands): 1.06

CCTTGAGGGGATTTCCCCCC (double strand) [SEQ-I]
IC50 (NF-kB p65 (RelA)): 0.384

GAGGGGATTTCCCC (double strand) [SEQ-33]
activity (NF-kB; PS (*): G*A*GGGGATTT*C*CCC / antisense 5'-GGGGAAA*T*C*CCCTC): 70 % inhibition

GAGGGGATTTCCCC (double strand) [SEQ-34]
activity (NF-kB; PS (*): G*A*GGGGATTT*C*CCC / antisense 5'-G*GGGAAA*T*C*CCCTC): 99 % inhibition

GAGGGGATTTCCCC (double strand) [SEQ-35]
activity (NF-kB; PS (*): G*A*GGGGATTT*C*CCC / antisense 3'-CTCCC*C*T*AAAG*G*GGG (so in the source)): 70 % inhibition

TTGAGGGGATTTCCCC (double strand) [SEQ-36]
activity (NF-kB; PS (*): T*TG*A*GGGGATTT*C*CCC / antisense 5'-G*GGGAAA*T*C*CCCTCAA): 80 % inhibition

TTGAGGGGATTTCCCC (double strand) [SEQ-37]
activity (NF-kB; PS (*): T*T*G*A*GGGGATTT*C*CCC / antisense 5'-G*G*GGAAA*T*C*CCCTCAA): 75 % inhibition

TTGAGGGGATTTCCCC (double strand) [SEQ-38]
activity (NF-kB; PS (*): TTG*A*GGGGATTT*C*CCC / antisense 5'-GGGGAAA*T*C*CCCTCAA): 90 % inhibition
